Measured values taken from patent publication US20200087373A1 (UNIVERSITY OF COPENHAGEN, published 2020).
Ends that are not written are not given here. * marks the point of attachment. Stearoyl = CCCCCCCCCCCCCCCCCC(=O)*

What was measured:
[1] = target: human GIP receptor (human) (UniProt P48546); assay: 125I-hGIP competition binding, COS-7 cells expressing hGIPR
[2] = target: human GIP receptor (human) (UniProt P48546); assay: ratio of IC50 with 2% HSA to IC50 with 0.1% casein, 125I-hGIP competition binding on hGIPR COS-7 cells
[3] = target: human GIP receptor (human) (UniProt P48546); assay: 125I-hGIP(1-42) competition binding, COS-7 cells expressing human GIPR, 0.1% casein (no HSA)
[4] = target: human GIP receptor (human) (UniProt P48546); assay: 125I-hGIP(1-42) competition binding, COS-7 cells expressing human GIPR
[5] = target: human GIP receptor (human) (UniProt P48546); assay: 125I-hGIP competition binding on hGIPR COS-7 cells; fold in affinity, paired, reference taken as GIP(3-30)NH2
[6] = target: human GIP receptor (human) (UniProt P48546); assay: 125I-hGIP(1-42) competition binding, COS-7 cells expressing human GIPR, 2% HSA
[7] = target: human GIP receptor (human) (UniProt P48546); assay: cell-based or functional assay
[8] = target: T1, human GIP receptor (human, UniProt P48546 22-466); assay: cell-based or functional assay
T1 sequence (looked up): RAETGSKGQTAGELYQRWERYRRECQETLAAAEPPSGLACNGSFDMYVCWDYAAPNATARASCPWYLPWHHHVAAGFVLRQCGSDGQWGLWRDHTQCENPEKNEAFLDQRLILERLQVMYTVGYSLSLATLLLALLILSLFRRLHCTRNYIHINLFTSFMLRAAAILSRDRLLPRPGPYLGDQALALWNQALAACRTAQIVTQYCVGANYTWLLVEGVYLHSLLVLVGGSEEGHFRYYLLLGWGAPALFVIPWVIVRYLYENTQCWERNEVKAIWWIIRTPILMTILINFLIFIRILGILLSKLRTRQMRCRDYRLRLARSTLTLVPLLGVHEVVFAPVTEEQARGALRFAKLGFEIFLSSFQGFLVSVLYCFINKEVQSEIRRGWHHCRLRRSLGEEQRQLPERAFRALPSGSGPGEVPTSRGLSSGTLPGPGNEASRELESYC

AT129 [hGIP(5-30)NH2-C18/30] (peptide)
log IC50 [1]: -3.9 log M

AT162 (H18K; K30R, C18 at position 16, as printed in Table 3b) (peptide)
Fold change (IC50 2% HSA / IC50 0.1% casein) [2]: 5.6 fold | IC50 [3]: 59.8 nM | IC50 [4]: 59.8 nM | fold (paired) [5]: 2.6 fold | IC50 [6]: 336 nM | cAMP - antagonisme IC50 [7]: 26.3 nM | cAMP - antagonisme fold (paired) [7]: 0.5 fold

AT114 [hGIP(3-30)NH2-C18/16] (peptide)
Fold change (IC50 2% HSA / IC50 0.1% casein) [2]: 7.7 fold | IC50 [3]: 115 nM | IC50 [4]: 102 nM | fold (paired) [5]: 6.7 fold | IC50 [6]: 881 nM | cAMP - antagonisme IC50 [7]: 29.2 nM | cAMP - antagonisme fold (paired) [7]: 2.3 fold

AT162, second row of Table 3b (H18K; K30R, C16 at position 16) (peptide)
Fold change (IC50 2% HSA / IC50 0.1% casein) [2]: 3.3 fold | IC50 [3]: 213 nM | IC50 [4]: 213 nM | fold (paired) [5]: 9.2 fold | IC50 [6]: 705 nM | cAMP - antagonisme IC50 [7]: 213 nM | cAMP - antagonisme fold (paired) [7]: 4.1 fold

EGTFISDYSIAMDK(Stearoyl)IRQQDFVNWLLAQR-NH2 (not fully specified) [AT162 [hGIP(3-30)NH2[H18R; K30R]-C18/16]]
cAMP agonism, EC50 (log) [8]: -5.9 log M | cAMP agonism, Emax [8]: 44% | cAMP agonism, nM (EC50) [8]: 1370 nM | IC50 [1]: 85 nM
